Publication PMC3946054 (Structure (London, England : 1993), 2013)
Like-named read-outs stand apart in the source and are kept apart here.

Tests used:
[1] = target: T1, SCaMC-1 transmembrane domain (TMD), residues 185-477, incorporated in POPC/POPG/cardiolipin liposomes (human, UniProt Q6NUK1 185-477); experiment: SPR
T1 sequence (looked up): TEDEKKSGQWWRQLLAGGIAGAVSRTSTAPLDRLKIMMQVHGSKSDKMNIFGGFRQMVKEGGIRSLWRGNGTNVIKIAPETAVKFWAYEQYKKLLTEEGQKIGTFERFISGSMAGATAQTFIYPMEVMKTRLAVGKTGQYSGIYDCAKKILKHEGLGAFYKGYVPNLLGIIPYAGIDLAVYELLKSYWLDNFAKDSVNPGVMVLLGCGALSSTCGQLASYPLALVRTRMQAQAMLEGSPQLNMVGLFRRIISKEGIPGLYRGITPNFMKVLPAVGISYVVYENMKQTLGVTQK

[2] = target: T1, SCaMC-1 transmembrane domain (TMD), …; experiment: SPR; remark: listed apart in the source

Kd [1]: 5600 µM
Kd [2]: 250 µM
B1: Human SCaMC-1 N-terminal domain (NTD), residues 1-193 (domain or fragment, UniProt Q6NUK1 1-193, looked up)
chain: MLRWLRDFVLPTAACQDAEQPTRYETLFQALDRNGDGVVDIGELQEGLRNLGIPLGQDAEEKIFTTGDVNKDGKLDFEEFMKYLKDHEKKMKLAFKSLDKNNDGKIEASEIVQSLQTLGLTISEQQAELILQSIDVDGTMTVDWNEWRDYFLFNPVTDIEEIIRFWKHSTGIDIGDSLTIPDEFTEDEKKSGQ
